Reference: US20030100114, “Methods for regulating T cell subsets by modulating transcription factor activity” (President and Fellows of Harvard College, published 2003)

B1: IL-4 promoter -59 to -27 wild type (dsDNA)
DNA 1: CTCATTTTCCCTTGGTTTCAGCAACTTTAACTC
DNA 2: GAGTTAAAGTTGCTGAAACCAAGGGAAAATGAG
B2: consensus MARE (dsDNA)
DNA 1: GGAATTGCTGACTCAGCATTACT
DNA 2: AGTAATGCTGAGTCAGCAATTCC

Legend:
c-Jun [1] = target: T1, c-Jun (Mus musculus, UniProt P05627 P05627:1-334); test: EMSA; details: tags: full-length, pGEM4, rabbit reticulocyte lysate TnT; label: 32P
T1 sequence (P05627 whole entry, one chain of several): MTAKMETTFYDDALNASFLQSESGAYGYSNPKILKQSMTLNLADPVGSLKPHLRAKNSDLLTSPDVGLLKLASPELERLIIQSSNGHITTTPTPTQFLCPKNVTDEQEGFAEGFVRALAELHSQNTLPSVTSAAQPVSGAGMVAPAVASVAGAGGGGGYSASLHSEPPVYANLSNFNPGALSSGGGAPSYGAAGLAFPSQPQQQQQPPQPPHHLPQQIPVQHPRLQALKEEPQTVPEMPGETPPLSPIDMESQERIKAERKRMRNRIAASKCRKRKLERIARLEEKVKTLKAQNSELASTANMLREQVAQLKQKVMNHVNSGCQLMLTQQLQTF
Description: (§1) Electrophoretic mobility shift assays (EMSA) were performed as follows. 100 ng of double-stranded oligonucleotides were end-labeled with γ-³²P-dATP (DuPont NEN Research Product, Wilmington, Del.) using T4 polynucleotide kinase (Pharmacia LKB Biotechnology, Inc., Piscataway, N.J.). The labeled ds-oligonucleotides were fractionated on 15-20% polyacrylamide gels, eluted overnight at 37° C. in 1×TE and precipitated in ethanol. Binding assays were performed at room temperature for 20 minutes using 0.5 μg of recombinant proteins or 4 μl of in vitro translated products, 500 ng poly(dI-dC), and 20,000 cpm of probe in a 15 μl volume of 20 mM HEPES (pH 7.9), 100 mM KCl, 5% glycerol, 1 mM EDTA, 5 mM DTT, 0.1% NP-40, and 0.5 mg/ml BSA. The samples were then fractionated in 4% non-denaturing polyacrylamide gel containing 0.5×TBE at room temperature. Oligonucleotides derived from the murine IL4 promoter used in EMSA were:
(§2) NF-AT proteins interact cooperatively with AP-1 family member proteins to form higher mobility complexes on IL-2 and IL-4 promoter DNA on EMSA (Jain, J. (1993) Nature 365:353-355; Rooney, J. et al. (1995) Immunity 2:545-553). […] To determine if c-Maf interacted with NF-AT in the presence of DNA, recombinant NF-ATp and c-Maf proteins were used separately or together in EMSA with the 33 bp oligonucleotide containing both the NF-AT and adjacent MARE sites. […]

[2] = target: T2, c-Maf (b-zip domain, aa 171-371) (UniProt P54843 P54843:171-370); test: EMSA; competed by homologous unlabeled probe; additional complex formed with NF-ATp; details: tags: S-Tag, pET29, E. coli BL21(DE3); label: 32P
T2 sequence (P54843 171-370, one chain of several): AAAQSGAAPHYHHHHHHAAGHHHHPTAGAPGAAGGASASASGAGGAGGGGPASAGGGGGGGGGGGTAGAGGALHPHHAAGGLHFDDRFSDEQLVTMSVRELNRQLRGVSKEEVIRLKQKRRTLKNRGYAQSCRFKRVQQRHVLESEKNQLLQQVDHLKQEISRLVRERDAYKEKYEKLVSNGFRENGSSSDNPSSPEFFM
Description: as §1, §2

c-Jun [3] = target: T1, c-Jun; test: EMSA; consensus MARE contains core TRE site; details: tags: full-length, pGEM4, rabbit reticulocyte lysate TnT; label: 32P
Description: as §1, with “were: […]” for “were:”

[4] = target: T2, c-Maf (b-zip domain, aa 171-371); test: EMSA; 20 mM HEPES pH 7.9, 100 mM KCl, room temperature; details: tags: S-Tag, pET29, E. coli BL21(DE3); label: 32P
Description: as §1, with “were: […]” for “were:”

Binder	binding result (c-Jun [1])	binding result [2]	binding result (c-Jun [3])	binding result [4]
B1	no binding	binds	–	–
B2	–	–	binds	binds
